Data on 1 molecule can be found in PMC10794413.

For the assay, the target named is Hsp90 (hsp82 gene from Saccharomyces cerevisiae) with a C-terminal coiled-coil domain (Saccharomyces cerevisiae).

B1: free Cdc37 with the S14E phosphomimic (natural protein)
chain: MAIDYSKWDKIELEDDSDVEVHPNVDKKSFIKWKQQSIHEQRFKRNQDIKNLETQVDMYSHLNKRVDRILSNLPESSLTDLPAVTKFLNANFDKMEKSKGENVDPEIATYNEMVEDLFEQLAKDLDKEGKDSKSPSLIRDAILKHRAKIDSVTVEAKKKLDELYKEKNAHISSEDIHTGFDSSFMNKQKGGAKPLEATPSEALSSAAESNILNKLAKSSVPQTFIDFKDDPMKLAKETEEFGKISINEYSKSQKFLLEHLPIISEQQKDALMMKAFEYQLHGDDKMTLQVIHQSELMAYIKEIYDMKKIPYLNPMELSNVINMFFEKVIFNKDKPMGKESFLRSVQEKFLHIQKRSKILQQEEMDESNAEGVETIQLKSLDDSTELEVNLPDFNSKDPEEMKKVKVFKTLIPEKMQEAIMTKNLDNINKVFEDIPIEEAEKLLEVFNDIDIIGIKAILENEKDFQSLKDQYEQDHEDATMENLSLNDRDGGGDNHEEVKHTADTVD
With B1, the ATPase rate of Hsp90 with freely added Cdc37 and equimolar Ste11: Cdc37's reducing effect is abrogated is 1.1 ATP/min.
